Laboratory results from the RNAGym collection of RNA variant scans (doi:10.1093/molbev/msab373).

B1: Azoarcus group I ribozyme (parent)
chain: GUGCCUUGCGCCGGGAAACCACGCAAGGGAUGGUGUCAAAUUCGGCGAAACCUAAGCGCCCGCCCGGGCGUAUGGCAACGCCGAGCCAAGCUUCGGCGCCUGCGCCGAUGAAGGUGUAGAGACUAGACGGCACCCACCUAAGGCAAACGCUAUGGUGAAGGCAUAGUCCAGGGAGUGGCGAAAGUCACACAAACCGG

Variants of: B1
Assay: reverse-splicing fitness (ratio to wild type); higher = more active; in vitro selection; Mg2+ level not given
Outline: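 An in vitro group I ribozyme library with randomized positions was T7-transcribed and gel-purified. In triplicate, 10 pmol RNA in EPPS pH 7.5 was reacted with 50 pmoles of a 30-nt RNA substrate for 1 h at 37 °C across several added MgCl2 levels (1–48 mM), then stopped with EDTA. Products were reverse transcribed from a substrate-complementary primer, PCR-amplified and sequenced (HiSeq 4000). Fitness is a variant's read proportion after selection over that before, normalised to wild type.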
Variant C82U A120C A145G C169U has a reverse-splicing fitness of 0.0217.
For C82U A120C A145G C169G, the reverse-splicing fitness was 0.00711.
C82U A120C A145G C169A showed a reverse-splicing fitness of 0.00815.
Variant C82U A120C A145C C150G C169A U176C has a reverse-splicing fitness of 0.0042.
With C82U A120C A145C C150G C169A U176G the reverse-splicing fitness was 0.00379.
Work on C82U A120C A145C C150G C169A U176A yielded a reverse-splicing fitness of 0.00866.
For C82U A120C A145U C169U, the reverse-splicing fitness was 0.0193.
C82U A120C A145U C169A gave a reverse-splicing fitness of 0.00492.
Variant C82U A120C A145U C169G has a reverse-splicing fitness of 0.00567.
For C82U A120C A145U C150A C169U U176G, the reverse-splicing fitness was 0.00413.
With C82U A120C A145U C150A C169U U176A the reverse-splicing fitness was 0.0155.
Variant C82U A120C A145U C150A C169U U176C has a reverse-splicing fitness of 0.0164.
For C82U A120C A145U C150A U176G, the reverse-splicing fitness was 0.00478.
C82U A120C A145U C150A U176C gave a reverse-splicing fitness of 0.0137.
Work on C82U A120C A145U C150A U176A yielded a reverse-splicing fitness of 0.0114.
With C82U A120G A145C C150G C169A the reverse-splicing fitness was 0.00904.
C82U A120C A145C C150G C169G U176A showed a reverse-splicing fitness of 0.00773.
In the case of C82U A120C A145C C150G C169G U176C, the reverse-splicing fitness is reported as 0.00518.
C82U A120C A145C C150G C169G U176G gave a reverse-splicing fitness of 0.00305.
C82U A120C A145G C150U C169A U176G showed a reverse-splicing fitness of 0.00464.
Work on C82U A120C A145G C150U C169A U176A yielded a reverse-splicing fitness of 0.0152.
C82U A120C A145G C150U C169A U176C showed a reverse-splicing fitness of 0.0131.
C82U A120C A145U C150G showed a reverse-splicing fitness of 0.0217.
With C82U A120C A145U C150A the reverse-splicing fitness was 0.021.
With C82U A120C A145U C150U the reverse-splicing fitness was 0.109.
C82U A120C A145G C150U C169A gave a reverse-splicing fitness of 0.0101.
In the case of C82U A120C A145G C150U C169U, the reverse-splicing fitness is reported as 0.0209.
Variant C82U A120C A145G C150U C169G has a reverse-splicing fitness of 0.00809.
For C82U A120C A145G C150G C169G U176G, the reverse-splicing fitness was 0.00504.
Variant C82U A120C A145G C150G C169G U176C has a reverse-splicing fitness of 0.0118.
Work on C82U A120C A145G C150G C169G U176A yielded a reverse-splicing fitness of 0.00987.
Work on C82U A120C A145U C150U C169U U176A yielded a reverse-splicing fitness of 0.0148.
For C82U A120C A145U C150U C169U U176C, the reverse-splicing fitness was 0.0144.
With C82U A120C A145U C150U C169U U176G the reverse-splicing fitness was 0.00397.
For C82U A120C A145C C150U C169A U176A, the reverse-splicing fitness was 0.00715.
In the case of C82U A120C A145C C150U C169A U176G, the reverse-splicing fitness is reported as 0.00409.
C82U A120C A145C C150U C169A U176C showed a reverse-splicing fitness of 0.00498.
With C82U A120C A145C C150A U176G the reverse-splicing fitness was 0.00472.
C82U A120C A145C C150A U176A gave a reverse-splicing fitness of 0.00873.
Variant C82U A120C A145C C150A U176C has a reverse-splicing fitness of 0.00962.
C82U A120C A145U C150A C169A U176G showed a reverse-splicing fitness of 0.00386.
In the case of C82U A120C A145U C150A C169A U176C, the reverse-splicing fitness is reported as 0.00669.
Work on C82U A120C A145U C150A C169A U176A yielded a reverse-splicing fitness of 0.0094.
For C82U A120C A145U C150A C169G U176A, the reverse-splicing fitness was 0.00898.
C82U A120C A145U C150A C169G U176C gave a reverse-splicing fitness of 0.0081.
In the case of C82U A120C A145U C150A C169G U176G, the reverse-splicing fitness is reported as 0.00397.
C82U A120C A145G C169A U176C showed a reverse-splicing fitness of 0.0219.
Work on C82U A120C A145G C169A U176G yielded a reverse-splicing fitness of 0.00317.
C82U A120C A145G C169A U176A gave a reverse-splicing fitness of 0.0158.
C82U A120C A145C C150G C169U U176C gave a reverse-splicing fitness of 0.00991.
C82U A120C A145C C150G C169U U176G gave a reverse-splicing fitness of 0.00403.
C82U A120C A145C C150G C169U U176A gave a reverse-splicing fitness of 0.00992.
C82U A120C A145G C169G U176C gave a reverse-splicing fitness of 0.0181.
Variant C82U A120C A145G C169G U176G has a reverse-splicing fitness of 0.00346.
C82U A120C A145G C169G U176A gave a reverse-splicing fitness of 0.0152.
In the case of C82U A111U C150U C169U U176G, the reverse-splicing fitness is reported as 0.00625.
In the case of C82U A111U C150U C169U U176A, the reverse-splicing fitness is reported as 0.0149.
In the case of C82U A111U C150U C169U U176C, the reverse-splicing fitness is reported as 0.0152.
C82U A120C C150G gave a reverse-splicing fitness of 0.0174.
For C82U A120C C150U, the reverse-splicing fitness was 0.0835.
With C82U A120C C150A the reverse-splicing fitness was 0.0251.
With C82U A120C A145C C169A the reverse-splicing fitness was 0.00538.
C82U A120C A145C C169U gave a reverse-splicing fitness of 0.0225.
C82U A120C A145C C169G gave a reverse-splicing fitness of 0.00713.
With C82U A120C the reverse-splicing fitness was 0.167.
With C82U A120G the reverse-splicing fitness was 0.0259.
In the case of C82U A120C A145C C150A C169U U176A, the reverse-splicing fitness is reported as 0.0146.
In the case of C82U A120C A145C C150A C169U U176G, the reverse-splicing fitness is reported as 0.00376.
C82U A120C A145C C150A C169U U176C showed a reverse-splicing fitness of 0.00799.
C82U A120C A145G C169U U176A gave a reverse-splicing fitness of 0.0177.
Work on C82U A120C A145G C169U U176G yielded a reverse-splicing fitness of 0.00344.
With C82U A120C A145G C169U U176C the reverse-splicing fitness was 0.0171.
Variant C82U A120C C150G C169U has a reverse-splicing fitness of 0.00921.
Variant C82U A120C C150G C169G has a reverse-splicing fitness of 0.00683.
C82U A120C C150G C169A showed a reverse-splicing fitness of 0.00883.
For C82U A120C A145C C169G U176G, the reverse-splicing fitness was 0.00341.
C82U A120C A145C C169G U176C showed a reverse-splicing fitness of 0.00783.
In the case of C82U A120C A145C C169G U176A, the reverse-splicing fitness is reported as 0.0129.
With C82U A120G A145C C150G C169A U176C the reverse-splicing fitness was 0.00565.
With C82U A120G A145C C150G C169A U176A the reverse-splicing fitness was 0.00717.
C82U A120C C150U C169U U176G showed a reverse-splicing fitness of 0.00448.
In the case of C82U A120C C150U C169U U176C, the reverse-splicing fitness is reported as 0.0177.
In the case of C82U A120C C150U C169U U176A, the reverse-splicing fitness is reported as 0.0176.
